B1: FCHO1 (parent)
chain: HLELTRKLQDLIKDVLRYGEEQLK

Variants of: B1
Assay: protein stability index of a GFP-peptide fusion (GPS, HEK-293T) (PSI 1-6); higher = more stable
Settings: c terminus: a fixed tail appended
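Further: lentivirally expressed fusions sorted by FACS into six bins by GFP to DsRed ratio, PSI derived from sequencing read proportions per bin multiplied by bin number.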

Protein stability index of substitutions, site by site:
L16: E 3.18 | N 2.82 | S 2.09 | P 2.9 | C 2.91 | T 2.25 | I 2.39 | H 2.73 | W 3.05 | Y 1.93 | D 3.32 | V 4.13 | M 2.69 | A 1.04 | G 2.61 | K 1.44 | F 2.77 | R 1.69 | Q 2.54
G19: E 1.88 | D 2.09 | S 1.52 | R 2.53 | M 1.97 | I 2.01 | Y 1.75 | C 1.4 | F 2.83 | H 2.29 | P 1.78 | Q 1.59 | L 2.03 | T 3.25 | V 2.02 | W 3.49 | N 2.18 | K 1.59 | A 2.5
L8: E 3.62 | C 3.07 | W 1.36 | T 2.39 | P 2.71 | V 1.97 | A 1.94 | H 2.71 | Q 3.3 | S 3.28 | G 2.46 | I 4.57 | R 3.39 | D 4.04 | F 2.29 | N 3.85 | K 2.74 | Y 1.64 | M 1.45
V15: A 2.98 | K 1.87 | S 1.88 | P 2.27 | W 3.69 | Q 2.49 | M 3.23 | R 2.74 | F 2.12 | E 3.18 | G 2.15 | H 1.83 | N 2.98 | I 2.96 | D 4.22
D10: K 2.72 | A 3.54 | W 2.82 | G 3.66 | I 3.93 | R 2.58 | Y 4.45 | L 1.44 | V 4.56 | N 2.62 | C 3.93 | E 3.03 | P 1.99
R6: L 1.29 | P 1.79 | W 2.34 | A 1.45 | H 3.21 | D 1.84 | Q 1.86 | T 1.92 | K 2.69 | N 1.61 | V 1.69 | I 1.95 | S 2.4 | C 2.25 | M 1.46 | G 2.11 | E 1.85 | Y 1.9 | F 1.9
D14: Y 2.66 | C 3.08 | L 1.99 | S 3.79 | K 4.59 | V 3.29 | H 3.31 | R 3.44 | N 2.76 | I 2.7 | G 1.68 | F 1.77 | Q 4.72 | E 2.9 | A 2.45 | P 2.97 | M 1.3
L23: I 3.49 | E 2.24 | K 2 | Q 2.06 | G 2.57 | F 3.59 | H 2.15 | R 2.44 | N 2.61 | S 2.31 | D 2.53 | P 1.73 | C 1.09 | A 2.36
Y18: M 2.65 | K 3.41 | R 2.27 | V 3.06 | E 1.77 | F 2.25 | H 2.12 | C 1.61 | Q 3.96 | N 1.84 | P 2.42 | T 1.88 | S 1.82 | L 2.53 | D 2.63 | A 2.74 | G 1.83
Q22: H 2.41 | P 1.79 | S 1.84 | G 2.62 | R 3.19 | Y 3.18 | V 2.32 | F 2.07 | D 2.43 | L 2.14 | I 2.21 | A 1.68 | C 1.59 | M 1.91 | E 2.37
E21: W 1.81 | T 2.8 | M 3.24 | N 3.29 | Y 3.04 | D 1.81 | I 3.67 | H 2.76 | R 2.43
E20: V 3.74 | P 2.51 | G 2.66 | T 1.74 | W 3.32 | S 3.54 | M 2.81 | D 3.65 | C 2.57 | H 2.58 | Y 2.65 | K 1.7 | A 2.69 | I 3.44
I12: F 2.57 | E 3.82 | D 4.11 | L 1.77 | Q 3.4 | P 3.65 | N 4.18 | K 3.17 | H 3.05 | M 2.25 | S 2.51 | Y 2.34 | R 3.39 | W 1.89 | A 2.27 | C 1.73 | T 2.31 | G 2.88
T5: E 1.88 | F 2.34 | G 2.48 | W 2.05 | I 2.38 | C 2.55 | P 1.94 | H 3.29 | Y 3.13 | D 2.53 | K 5.01 | V 2.63 | M 3.28 | N 2.14 | Q 3.54 | A 1.89 | S 3.79 | L 3.42
K13: A 2.14 | N 1.9 | Y 1.33 | Q 1.59 | V 2.29 | D 2.06 | L 4.09 | E 2.37 | F 1.59 | C 2.28 | I 4.84 | P 2.63 | W 2.16 | G 1.78 | T 1.67 | M 2.22 | S 2 | H 1.8 | R 2.3
Q9: F 2.25 | P 2.81 | H 1.65 | D 1.24 | G 1.31 | L 2.26 | M 3.55 | K 3.73 | V 2.56 | Y 3.31 | W 2.68 | A 2.81 | I 1.22
L11: E 4.22 | P 4.34 | D 4.29 | F 3.54 | Q 2.47 | Y 1.09 | H 2.51 | T 1.63 | K 2.38 | S 2.67 | M 3.68 | G 2.38 | R 1.2 | A 2.5 | I 3.17 | C 1.67 | N 2.56
E3: R 2.74 | S 3.71 | W 2.83 | V 2.56 | T 3.33 | Y 2.52
K7: E 2.28 | S 2.75 | W 1.87 | H 1.99 | V 1.74 | P 1.51 | M 3.46 | A 2.33 | I 2.06 | G 2.68 | T 2.96 | Q 2.28 | C 1.55 | N 2.03 | F 2.12 | D 2.27 | Y 1.78 | L 3.41 | R 2.78
R17: E 1.76 | P 2.95 | Y 2.08 | A 1.97 | V 2.61 | L 2.88 | S 1.46 | Q 2.26 | F 3.06 | D 1.73 | G 1.58 | T 1.54 | N 2.64 | C 1.83 | M 1.98 | H 3.28 | I 1.54
L4: C 4.01 | N 1.75 | K 1.43 | Q 2.58 | H 3.01 | G 2.02 | T 1.55 | M 2.21 | I 2.12 | V 3.17 | W 3.23 | D 2.01 | P 1.58 | S 2.76 | F 3.76 | Y 2.41 | E 1.46

Reference: the supplement of paper PMC10567573
